Laboratory results taken from patent US20160272683A1 (Novo Nordisk, published 2016).
Numbered stars: 1 amine (or outer) side, 2 acyl side, 3 side chain; on linkers, the order of the positions; unused ones are H or OH. * marks the point of attachment. C20 diacid = O=C(O)CCCCCCCCCCCCCCCCCCC(=O)*; C18 diacid = O=C(O)CCCCCCCCCCCCCCCCC(=O)*; γGlu = O=C(O)[C@H](CCC(=O)[*:2])N[*:1]; C14 diacid = O=C(O)CCCCCCCCCCCCC(=O)*

T1: human amylin receptor (human calcitonin receptor + human RAMP3) (human) (UniProt P30988)
T1 sequence (looked up) 1: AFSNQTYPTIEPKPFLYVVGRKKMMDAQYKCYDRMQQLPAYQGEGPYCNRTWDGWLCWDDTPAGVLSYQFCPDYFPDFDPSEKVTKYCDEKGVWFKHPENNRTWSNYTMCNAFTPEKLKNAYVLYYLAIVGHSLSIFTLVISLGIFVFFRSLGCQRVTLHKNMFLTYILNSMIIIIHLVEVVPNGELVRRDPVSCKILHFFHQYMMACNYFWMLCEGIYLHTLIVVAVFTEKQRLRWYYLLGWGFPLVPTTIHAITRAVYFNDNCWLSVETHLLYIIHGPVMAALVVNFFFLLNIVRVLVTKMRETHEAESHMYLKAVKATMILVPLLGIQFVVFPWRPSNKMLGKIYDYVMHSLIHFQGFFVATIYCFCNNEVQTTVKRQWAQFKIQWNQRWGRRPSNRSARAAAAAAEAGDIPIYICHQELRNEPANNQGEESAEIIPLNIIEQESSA
T1 sequence (looked up) 2: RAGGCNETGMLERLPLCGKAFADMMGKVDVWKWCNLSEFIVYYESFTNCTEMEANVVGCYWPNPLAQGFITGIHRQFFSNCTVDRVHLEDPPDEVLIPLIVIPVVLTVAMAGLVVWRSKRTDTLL

B1: [N-terminal(C14 diacid-gGlu), des1]mimylin (peptide)
peptide: {C14 diacid-γGlu}-ASELSTAALGRLSAELHELATLPRTETGPESP-NH2
B2: [N-terminal(C18 diacid), 30S, 31G]mimylin (peptide)
peptide: {C18 diacid}-EASELSTAALGRLSAELHELATLPRTETGSGSP-NH2
B3: [N-terminal(C20 diacid), 30S, 31G]mimylin (peptide)
peptide: {C20 diacid}-EASELSTAALGRLSAELHELATLPRTETGSGSP-NH2
B4: [N-terminal(C18 diacid-gGlu), des1, 30S]mimylin (peptide)
peptide: {C18 diacid-γGlu}-ASELSTAALGRLSAELHELATLPRTETGSESP-NH2
SMILES: CC(C)C[C@H](NC(=O)[C@H](C)NC(=O)[C@H](C)NC(=O)[C@@H](NC(=O)[C@H](CO)NC(=O)[C@H](CC(C)C)NC(=O)[C@H](CCC(=O)O)NC(=O)[C@H](CO)NC(=O)[C@H](C)NC(=O)CC[C@H](NC(=O)CCCCCCCCCCCCCCCCC(=O)O)C(=O)O)[C@@H](C)O)C(=O)NCC(=O)N[C@@H](CCCNC(=N)N)C(=O)N[C@@H](CC(C)C)C(=O)N[C@@H](CO)C(=O)N[C@@H](C)C(=O)N[C@@H](CCC(=O)O)C(=O)N[C@@H](CC(C)C)C(=O)N[C@@H](Cc1c[nH]cn1)C(=O)N[C@@H](CCC(=O)O)C(=O)N[C@@H](CC(C)C)C(=O)N[C@@H](C)C(=O)N[C@H](C(=O)N[C@@H](CC(C)C)C(=O)N1CCC[C@H]1C(=O)N[C@@H](CCCNC(=N)N)C(=O)N[C@H](C(=O)N[C@@H](CCC(=O)O)C(=O)N[C@H](C(=O)NCC(=O)N[C@@H](CO)C(=O)N[C@@H](CCC(=O)O)C(=O)N[C@@H](CO)C(=O)N1CCC[C@H]1C(N)=O)[C@@H](C)O)[C@@H](C)O)[C@@H](C)O
B5: [N-terminal(C18 diacid), 5V, 9V]mimylin (peptide)
peptide: {C18 diacid}-EASEVSTAVLGRLSAELHELATLPRTETGPESP-NH2
SMILES: CC(C)C[C@H](NC(=O)[C@H](CCC(=O)O)NC(=O)[C@H](Cc1c[nH]cn1)NC(=O)[C@H](CC(C)C)NC(=O)[C@H](CCC(=O)O)NC(=O)[C@H](C)NC(=O)[C@H](CO)NC(=O)[C@H](CC(C)C)NC(=O)[C@H](CCCNC(=N)N)NC(=O)CNC(=O)[C@H](CC(C)C)NC(=O)[C@@H](NC(=O)[C@H](C)NC(=O)[C@@H](NC(=O)[C@H](CO)NC(=O)[C@@H](NC(=O)[C@H](CCC(=O)O)NC(=O)[C@H](CO)NC(=O)[C@H](C)NC(=O)[C@H](CCC(=O)O)NC(=O)CCCCCCCCCCCCCCCCC(=O)O)C(C)C)[C@@H](C)O)C(C)C)C(=O)N[C@@H](C)C(=O)N[C@H](C(=O)N[C@@H](CC(C)C)C(=O)N1CCC[C@H]1C(=O)N[C@@H](CCCNC(=N)N)C(=O)N[C@H](C(=O)N[C@@H](CCC(=O)O)C(=O)N[C@H](C(=O)NCC(=O)N1CCC[C@H]1C(=O)N[C@@H](CCC(=O)O)C(=O)N[C@@H](CO)C(=O)N1CCC[C@H]1C(N)=O)[C@@H](C)O)[C@@H](C)O)[C@@H](C)O
B6: [N-terminal(C18 diacid), 5I, 9I]mimylin (peptide)
peptide: {C18 diacid}-EASEISTAILGRLSAELHELATLPRTETGPESP-NH2
SMILES: CC[C@H](C)[C@H](NC(=O)[C@H](C)NC(=O)[C@@H](NC(=O)[C@H](CO)NC(=O)[C@@H](NC(=O)[C@H](CCC(=O)O)NC(=O)[C@H](CO)NC(=O)[C@H](C)NC(=O)[C@H](CCC(=O)O)NC(=O)CCCCCCCCCCCCCCCCC(=O)O)[C@@H](C)CC)[C@@H](C)O)C(=O)N[C@@H](CC(C)C)C(=O)NCC(=O)N[C@@H](CCCNC(=N)N)C(=O)N[C@@H](CC(C)C)C(=O)N[C@@H](CO)C(=O)N[C@@H](C)C(=O)N[C@@H](CCC(=O)O)C(=O)N[C@@H](CC(C)C)C(=O)N[C@@H](Cc1c[nH]cn1)C(=O)N[C@@H](CCC(=O)O)C(=O)N[C@@H](CC(C)C)C(=O)N[C@@H](C)C(=O)N[C@H](C(=O)N[C@@H](CC(C)C)C(=O)N1CCC[C@H]1C(=O)N[C@@H](CCCNC(=N)N)C(=O)N[C@H](C(=O)N[C@@H](CCC(=O)O)C(=O)N[C@H](C(=O)NCC(=O)N1CCC[C@H]1C(=O)N[C@@H](CCC(=O)O)C(=O)N[C@@H](CO)C(=O)N1CCC[C@H]1C(N)=O)[C@@H](C)O)[C@@H](C)O)[C@@H](C)O
B7: [N-terminal(C18 diacid), 9V, 10I]mimylin (peptide)
peptide: {C18 diacid}-EASELSTAVIGRLSAELHELATLPRTETGPESP-NH2
SMILES: CC[C@H](C)[C@H](NC(=O)[C@@H](NC(=O)[C@H](C)NC(=O)[C@@H](NC(=O)[C@H](CO)NC(=O)[C@H](CC(C)C)NC(=O)[C@H](CCC(=O)O)NC(=O)[C@H](CO)NC(=O)[C@H](C)NC(=O)[C@H](CCC(=O)O)NC(=O)CCCCCCCCCCCCCCCCC(=O)O)[C@@H](C)O)C(C)C)C(=O)NCC(=O)N[C@@H](CCCNC(=N)N)C(=O)N[C@@H](CC(C)C)C(=O)N[C@@H](CO)C(=O)N[C@@H](C)C(=O)N[C@@H](CCC(=O)O)C(=O)N[C@@H](CC(C)C)C(=O)N[C@@H](Cc1c[nH]cn1)C(=O)N[C@@H](CCC(=O)O)C(=O)N[C@@H](CC(C)C)C(=O)N[C@@H](C)C(=O)N[C@H](C(=O)N[C@@H](CC(C)C)C(=O)N1CCC[C@H]1C(=O)N[C@@H](CCCNC(=N)N)C(=O)N[C@H](C(=O)N[C@@H](CCC(=O)O)C(=O)N[C@H](C(=O)NCC(=O)N1CCC[C@H]1C(=O)N[C@@H](CCC(=O)O)C(=O)N[C@@H](CO)C(=O)N1CCC[C@H]1C(N)=O)[C@@H](C)O)[C@@H](C)O)[C@@H](C)O
B8: [N-terminal(C18 diacid), 9L, 10A]mimylin (peptide)
peptide: {C18 diacid}-EASELSTALAGRLSAELHELATLPRTETGPESP-NH2
SMILES: CC(C)C[C@H](NC(=O)[C@H](C)NC(=O)[C@@H](NC(=O)[C@H](CO)NC(=O)[C@H](CC(C)C)NC(=O)[C@H](CCC(=O)O)NC(=O)[C@H](CO)NC(=O)[C@H](C)NC(=O)[C@H](CCC(=O)O)NC(=O)CCCCCCCCCCCCCCCCC(=O)O)[C@@H](C)O)C(=O)N[C@@H](C)C(=O)NCC(=O)N[C@@H](CCCNC(=N)N)C(=O)N[C@@H](CC(C)C)C(=O)N[C@@H](CO)C(=O)N[C@@H](C)C(=O)N[C@@H](CCC(=O)O)C(=O)N[C@@H](CC(C)C)C(=O)N[C@@H](Cc1c[nH]cn1)C(=O)N[C@@H](CCC(=O)O)C(=O)N[C@@H](CC(C)C)C(=O)N[C@@H](C)C(=O)N[C@H](C(=O)N[C@@H](CC(C)C)C(=O)N1CCC[C@H]1C(=O)N[C@@H](CCCNC(=N)N)C(=O)N[C@H](C(=O)N[C@@H](CCC(=O)O)C(=O)N[C@H](C(=O)NCC(=O)N1CCC[C@H]1C(=O)N[C@@H](CCC(=O)O)C(=O)N[C@@H](CO)C(=O)N1CCC[C@H]1C(N)=O)[C@@H](C)O)[C@@H](C)O)[C@@H](C)O
B9: [N-terminal(C18 diacid), 2P, 9V]mimylin (peptide)
peptide: {C18 diacid}-EPSELSTAVLGRLSAELHELATLPRTETGPESP-NH2
SMILES: CC(C)C[C@H](NC(=O)[C@H](CCC(=O)O)NC(=O)[C@H](Cc1c[nH]cn1)NC(=O)[C@H](CC(C)C)NC(=O)[C@H](CCC(=O)O)NC(=O)[C@H](C)NC(=O)[C@H](CO)NC(=O)[C@H](CC(C)C)NC(=O)[C@H](CCCNC(=N)N)NC(=O)CNC(=O)[C@H](CC(C)C)NC(=O)[C@@H](NC(=O)[C@H](C)NC(=O)[C@@H](NC(=O)[C@H](CO)NC(=O)[C@H](CC(C)C)NC(=O)[C@H](CCC(=O)O)NC(=O)[C@H](CO)NC(=O)[C@@H]1CCCN1C(=O)[C@H](CCC(=O)O)NC(=O)CCCCCCCCCCCCCCCCC(=O)O)[C@@H](C)O)C(C)C)C(=O)N[C@@H](C)C(=O)N[C@H](C(=O)N[C@@H](CC(C)C)C(=O)N1CCC[C@H]1C(=O)N[C@@H](CCCNC(=N)N)C(=O)N[C@H](C(=O)N[C@@H](CCC(=O)O)C(=O)N[C@H](C(=O)NCC(=O)N1CCC[C@H]1C(=O)N[C@@H](CCC(=O)O)C(=O)N[C@@H](CO)C(=O)N1CCC[C@H]1C(N)=O)[C@@H](C)O)[C@@H](C)O)[C@@H](C)O
B10: [N-terminal(C18 diacid), 3P, 9V]mimylin (peptide)
peptide: {C18 diacid}-EAPELSTAVLGRLSAELHELATLPRTETGPESP-NH2
SMILES: CC(C)C[C@H](NC(=O)[C@H](CCC(=O)O)NC(=O)[C@H](Cc1c[nH]cn1)NC(=O)[C@H](CC(C)C)NC(=O)[C@H](CCC(=O)O)NC(=O)[C@H](C)NC(=O)[C@H](CO)NC(=O)[C@H](CC(C)C)NC(=O)[C@H](CCCNC(=N)N)NC(=O)CNC(=O)[C@H](CC(C)C)NC(=O)[C@@H](NC(=O)[C@H](C)NC(=O)[C@@H](NC(=O)[C@H](CO)NC(=O)[C@H](CC(C)C)NC(=O)[C@H](CCC(=O)O)NC(=O)[C@@H]1CCCN1C(=O)[C@H](C)NC(=O)[C@H](CCC(=O)O)NC(=O)CCCCCCCCCCCCCCCCC(=O)O)[C@@H](C)O)C(C)C)C(=O)N[C@@H](C)C(=O)N[C@H](C(=O)N[C@@H](CC(C)C)C(=O)N1CCC[C@H]1C(=O)N[C@@H](CCCNC(=N)N)C(=O)N[C@H](C(=O)N[C@@H](CCC(=O)O)C(=O)N[C@H](C(=O)NCC(=O)N1CCC[C@H]1C(=O)N[C@@H](CCC(=O)O)C(=O)N[C@@H](CO)C(=O)N1CCC[C@H]1C(N)=O)[C@@H](C)O)[C@@H](C)O)[C@@H](C)O

Molecular target: T1, human amylin receptor (human calcitonin receptor + human RAMP3) (human)
Experiment: whole-cell competition vs 125I-rat amylin (Assay Va)

Row | IC50 [nM] | Binder
1 | 1.14 | B1
2 | 0.187 | B2
3 | 0.24 | B3
4 | 0.83 | B4
5 | 0.824 | B5
6 | 0.4 | B6
7 | 0.891 | B7
8 | 0.374 | B8
9 | 0.375 | B9
10 | 0.352 | B10
